Measured values reported in the supplement of paper PMC12338614.
± gives the uncertainty stated by the source.

B1: library; numbered along this chain (parent)
chain: MEVVDPQQLGMFTEGELMSVGMDTFIHRIDSTEVIYQPRRKRAKLIGKYLMGDLLGEGSYGKVKEVLDSETLCRRAVKILKKKKLRRIPNGEANVKKEIQLLRRLRHKNVIQLVDVLYNEEKQKMYMVMEYCVCGMQEMLDSVPEKRFPVCQAHGYFCQLIDGLEYLHSQGIVHKDIKPGNLLLTTGGTLKISDLGVAEALHPFAADDTCRTSQGSPAFQPPEIANGLDTFSGFKVDIWSAGVTLYNITTGLYPFEGDNIYKLFENIGKGSYAIPGDCGPPLSDLLKGMLEYEPAKRFSIRQIRQHSWFRKKHPPAEAPVPIPPSPDTKDRWRSMTVVPYLEDLHGADEDEDLFDIEDDIIYTQDFTVPGQVPEEEASHNGQRRGLPKAVCMNGTEAAQLSTKSRAEGRAPNPARKACSASSKIRRLSACKQQ

Variants of: B1
Test: STK11 functional score (HeLa growth suppression), rescaled enrichment; synonymous median = 1, nonsense median = 0 (normalised score)
Conditions: with HeLa; variant type: missense
Method in brief: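 Codon-randomised (POPCode) libraries of codon-optimised STK11 were integrated by Bxb1 at an AAVS1 landing pad in HeLa, in three regions each transfected three times. Integrants (BFP-negative, mCherry-positive) were FACS-sorted 4–5 days after electroporation and grown about two weeks; tiled gDNA amplicons were sequenced on NextSeq (~2 million reads per tile). The functional score is the wild-type-corrected post/pre-selection log ratio, rescaled to synonymous and nonsense medians, merged over codons and replicate transfections, with bootstrapped error.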

Row | Variant | STK11 functional score
1 | MEVVDPQQLGMFTEGELMSVGMDTFIHRIDSTEVIYQPRRKRAKLIGKYLMGDLLGEGSYGKVKEVLDSETLCRRAVKILKKKKLRRIPNGEANVKKEIQLLRRLRHKNVIQLVDVLYNEEKQKMYMVMEYCVCGMQEMLDSVPEKRFPVCQAHGYFCQLIDGLEYLHSQGIVHKDIKPGNLLLTTGGTLKISDLGVAEALHPFAADDTCRTSQGSPAFQPPEIANGLDTFSGFKVDIWSAGVTLYNITTGLYPFEGDNIYKLFENIGKGSYAIPGDCGPPLSDLLKGMLEYEPAKFFSIRQIRQHSWFRKKHPPAEAPVPIPPSPDTKDRWRSMTVVPYLEDLHGADEDEDLFDIEDDIIYTQDFTVPGQVPEEEASHNGQRRGLPKAVCMNGTEAAQLSTKSRAEGRAPNPARKACSASSKIRRLSACKQQ [R297F] | -0.355 ± 0.076
2 | MEVVDPQQLGMFTEGELMSVGMDTFIHRIDSTEVIYQPRRKRAKLIGKYLMGDLLGEGSYGKVKEVLDSETLCRRAVKILKKKKLRRIPNGEANVKKEIQLLRRLRHKNVIQLVDVLYNEEKQKMYMVMEYCVCGMQEMLDSVPEKRFPVCQAHGYFCQLIDGLEYLHSQGIVHKDIKPGNLLLTTGGTLKISDLGVAEALHPFAADDTCRTSQGSPAFQPPEIANGLDTFSGFKVDIWSAGVTLYNITTGLYPFEGDNIYKLFENIGKGSYAIPGDCGPPLSDLLKGMLEYEPAKTFSIRQIRQHSWFRKKHPPAEAPVPIPPSPDTKDRWRSMTVVPYLEDLHGADEDEDLFDIEDDIIYTQDFTVPGQVPEEEASHNGQRRGLPKAVCMNGTEAAQLSTKSRAEGRAPNPARKACSASSKIRRLSACKQQ [R297T] | -0.0209 ± 0.12
3 | MEVVDPQQLGMFTEGELMSVGMDTFIHRIDSTEVIYQPRRKRAKLIGKYLMGDLLGEGSYGKVKEVLDSETLCRRAVKILKKKKLRRIPNGEANVKKEIQLLRRLRHKNVIQLVDVLYNEEKQKMYMVMEYCVCGMQEMLDSVPEKRFPVCQAHGYFCQLIDGLEYLHSQGIVHKDIKPGNLLLTTGGTLKISDLGVAEALHPFAADDTCRTSQGSPAFQPPEIANGLDTFSGFKVDIWSAGVTLYNITTGLYPFEGDNIYKLFENIGKGSYAIPGDCGPPLSDLLKGMLEYEPAKWFSIRQIRQHSWFRKKHPPAEAPVPIPPSPDTKDRWRSMTVVPYLEDLHGADEDEDLFDIEDDIIYTQDFTVPGQVPEEEASHNGQRRGLPKAVCMNGTEAAQLSTKSRAEGRAPNPARKACSASSKIRRLSACKQQ [R297W] | -0.193 ± 0.083
4 | MEVVDPQQLGMFTEGELMSVGMDTFIHRIDSTEVIYQPRRKRAKLIGKYLMGDLLGEGSYGKVKEVLDSETLCRRAVKILKKKKLRRIPNGEANVKKEIQLLRRLRHKNVIQLVDVLYNEEKQKMYMVMEYCVCGMQEMLDSVPEKRFPVCQAHGYFCQLIDGLEYLHSQGIVHKDIKPGNLLLTTGGTLKISDLGVAEALHPFAADDTCRTSQGSPAFQPPEIANGLDTFSGFKVDIWSAGVTLYNITTGLYPFEGDNIYKLFENIGKGSYAIPGDCGPPLSDLLKGMLEYEPAKKFSIRQIRQHSWFRKKHPPAEAPVPIPPSPDTKDRWRSMTVVPYLEDLHGADEDEDLFDIEDDIIYTQDFTVPGQVPEEEASHNGQRRGLPKAVCMNGTEAAQLSTKSRAEGRAPNPARKACSASSKIRRLSACKQQ [R297K] | -0.29 ± 0.13
5 | MEVVDPQQLGMFTEGELMSVGMDTFIHRIDSTEVIYQPRRKRAKLIGKYLMGDLLGEGSYGKVKEVLDSETLCRRAVKILKKKKLRRIPNGEANVKKEIQLLRRLRHKNVIQLVDVLYNEEKQKMYMVMEYCVCGMQEMLDSVPEKRFPVCQAHGYFCQLIDGLEYLHSQGIVHKDIKPGNLLLTTGGTLKISDLGVAEALHPFAADDTCRTSQGSPAFQPPEIANGLDTFSGFKVDIWSAGVTLYNITTGLYPFEGDNIYKLFENIGKGSYAIPGDCGPPLSDLLKGMLEYEPAKLFSIRQIRQHSWFRKKHPPAEAPVPIPPSPDTKDRWRSMTVVPYLEDLHGADEDEDLFDIEDDIIYTQDFTVPGQVPEEEASHNGQRRGLPKAVCMNGTEAAQLSTKSRAEGRAPNPARKACSASSKIRRLSACKQQ [R297L] | -0.121 ± 0.1
6 | MEVVDPQQLGMFTEGELMSVGMDTFIHRIDSTEVIYQPRRKRAKLIGKYLMGDLLGEGSYGKVKEVLDSETLCRRAVKILKKKKLRRIPNGEANVKKEIQLLRRLRHKNVIQLVDVLYNEEKQKMYMVMEYCVCGMQEMLDSVPEKRFPVCQAHGYFCQLIDGLEYLHSQGIVHKDIKPGNLLLTTGGTLKISDLGVAEALHPFAADDTCRTSQGSPAFQPPEIANGLDTFSGFKVDIWSAGVTLYNITTGLYPFEGDNIYKLFENIGKGSYAIPGDCGPPLSDLLKGMLEYEPAKVFSIRQIRQHSWFRKKHPPAEAPVPIPPSPDTKDRWRSMTVVPYLEDLHGADEDEDLFDIEDDIIYTQDFTVPGQVPEEEASHNGQRRGLPKAVCMNGTEAAQLSTKSRAEGRAPNPARKACSASSKIRRLSACKQQ [R297V] | -0.053 ± 0.093
7 | MEVVDPQQLGMFTEGELMSVGMDTFIHRIDSTEVIYQPRRKRAKLIGKYLMGDLLGEGSYGKVKEVLDSETLCRRAVKILKKKKLRRIPNGEANVKKEIQLLRRLRHKNVIQLVDVLYNEEKQKMYMVMEYCVCGMQEMLDSVPEKRFPVCQAHGYFCQLIDGLEYLHSQGIVHKDIKPGNLLLTTGGTLKISDLGVAEALHPFAADDTCRTSQGSPAFQPPEIANGLDTFSGFKVDIWSAGVTLYNITTGLYPFEGDNIYKLFENIGKGSYAIPGDCGPPLSDLLKGMLEYEPAKPFSIRQIRQHSWFRKKHPPAEAPVPIPPSPDTKDRWRSMTVVPYLEDLHGADEDEDLFDIEDDIIYTQDFTVPGQVPEEEASHNGQRRGLPKAVCMNGTEAAQLSTKSRAEGRAPNPARKACSASSKIRRLSACKQQ [R297P] | -0.429 ± 0.077
8 | MEVVDPQQLGMFTEGELMSVGMDTFIHRIDSTEVIYQPRRKRAKLIGKYLMGDLLGEGSYGKVKEVLDSETLCRRAVKILKKKKLRRIPNGEANVKKEIQLLRRLRHKNVIQLVDVLYNEEKQKMYMVMEYCVCGMQEMLDSVPEKRFPVCQAHGYFCQLIDGLEYLHSQGIVHKDIKPGNLLLTTGGTLKISDLGVAEALHPFAADDTCRTSQGSPAFQPPEIANGLDTFSGFKVDIWSAGVTLYNITTGLYPFEGDNIYKLFENIGKGSYAIPGDCGPPLSDLLKGMLEYEPAKIFSIRQIRQHSWFRKKHPPAEAPVPIPPSPDTKDRWRSMTVVPYLEDLHGADEDEDLFDIEDDIIYTQDFTVPGQVPEEEASHNGQRRGLPKAVCMNGTEAAQLSTKSRAEGRAPNPARKACSASSKIRRLSACKQQ [R297I] | 0.0965 ± 0.092
9 | MEVVDPQQLGMFTEGELMSVGMDTFIHRIDSTEVIYQPRRKRAKLIGKYLMGDLLGEGSYGKVKEVLDSETLCRRAVKILKKKKLRRIPNGEANVKKEIQLLRRLRHKNVIQLVDVLYNEEKQKMYMVMEYCVCGMQEMLDSVPEKRFPVCQAHGYFCQLIDGLEYLHSQGIVHKDIKPGNLLLTTGGTLKISDLGVAEALHPFAADDTCRTSQGSPAFQPPEIANGLDTFSGFKVDIWSAGVTLYNITTGLYPFEGDNIYKLFENIGKGSYAIPGDCGPPLSDLLKGMLEYEPAKSFSIRQIRQHSWFRKKHPPAEAPVPIPPSPDTKDRWRSMTVVPYLEDLHGADEDEDLFDIEDDIIYTQDFTVPGQVPEEEASHNGQRRGLPKAVCMNGTEAAQLSTKSRAEGRAPNPARKACSASSKIRRLSACKQQ [R297S] | -0.196 ± 0.08
10 | MEVVDPQQLGMFTEGELMSVGMDTFIHRIDSTEVIYQPRRKRAKLIGKYLMGDLLGEGSYGKVKEVLDSETLCRRAVKILKKKKLRRIPNGEANVKKEIQLLRRLRHKNVIQLVDVLYNEEKQKMYMVMEYCVCGMQEMLDSVPEKRFPVCQAHGYFCQLIDGLEYLHSQGIVHKDIKPGNLLLTTGGTLKISDLGVAEALHPFAADDTCRTSQGSPAFQPPEIANGLDTFSGFKVDIWSAGVTLYNITTGLYPFEGDNIYKLFENIGKGSYAIPGDCGPPLSDLLKGMLEYEPAKGFSIRQIRQHSWFRKKHPPAEAPVPIPPSPDTKDRWRSMTVVPYLEDLHGADEDEDLFDIEDDIIYTQDFTVPGQVPEEEASHNGQRRGLPKAVCMNGTEAAQLSTKSRAEGRAPNPARKACSASSKIRRLSACKQQ [R297G] | -0.132 ± 0.076
11 | MEVVDPQQLGMFTEGELMSVGMDTFIHRIDSTEVIYQPRRKRAKLIGKYLMGDLLGEGSYGKVKEVLDSETLCRRAVKILKKKKLRRIPNGEANVKKEIQLLRRLRHKNVIQLVDVLYNEEKQKMYMVMEYCVCGMQEMLDSVPEKRFPVCQAHGYFCQLIDGLEYLHSQGIVHKDIKPGNLLLTTGGTLKISDLGVAEALHPFAADDTCRTSQGSPAFQPPEIANGLDTFSGFKVDIWSAGVTLYNITTGLYPFEGDNIYKLFENIGKGSYAIPGDCGPPLSDLLKGMLEYEPAKRGSIRQIRQHSWFRKKHPPAEAPVPIPPSPDTKDRWRSMTVVPYLEDLHGADEDEDLFDIEDDIIYTQDFTVPGQVPEEEASHNGQRRGLPKAVCMNGTEAAQLSTKSRAEGRAPNPARKACSASSKIRRLSACKQQ [F298G] | -0.228 ± 0.09
12 | MEVVDPQQLGMFTEGELMSVGMDTFIHRIDSTEVIYQPRRKRAKLIGKYLMGDLLGEGSYGKVKEVLDSETLCRRAVKILKKKKLRRIPNGEANVKKEIQLLRRLRHKNVIQLVDVLYNEEKQKMYMVMEYCVCGMQEMLDSVPEKRFPVCQAHGYFCQLIDGLEYLHSQGIVHKDIKPGNLLLTTGGTLKISDLGVAEALHPFAADDTCRTSQGSPAFQPPEIANGLDTFSGFKVDIWSAGVTLYNITTGLYPFEGDNIYKLFENIGKGSYAIPGDCGPPLSDLLKGMLEYEPAKRESIRQIRQHSWFRKKHPPAEAPVPIPPSPDTKDRWRSMTVVPYLEDLHGADEDEDLFDIEDDIIYTQDFTVPGQVPEEEASHNGQRRGLPKAVCMNGTEAAQLSTKSRAEGRAPNPARKACSASSKIRRLSACKQQ [F298E] | -0.101 ± 0.11
13 | MEVVDPQQLGMFTEGELMSVGMDTFIHRIDSTEVIYQPRRKRAKLIGKYLMGDLLGEGSYGKVKEVLDSETLCRRAVKILKKKKLRRIPNGEANVKKEIQLLRRLRHKNVIQLVDVLYNEEKQKMYMVMEYCVCGMQEMLDSVPEKRFPVCQAHGYFCQLIDGLEYLHSQGIVHKDIKPGNLLLTTGGTLKISDLGVAEALHPFAADDTCRTSQGSPAFQPPEIANGLDTFSGFKVDIWSAGVTLYNITTGLYPFEGDNIYKLFENIGKGSYAIPGDCGPPLSDLLKGMLEYEPAKRDSIRQIRQHSWFRKKHPPAEAPVPIPPSPDTKDRWRSMTVVPYLEDLHGADEDEDLFDIEDDIIYTQDFTVPGQVPEEEASHNGQRRGLPKAVCMNGTEAAQLSTKSRAEGRAPNPARKACSASSKIRRLSACKQQ [F298D] | 1.48 ± 0.12
14 | MEVVDPQQLGMFTEGELMSVGMDTFIHRIDSTEVIYQPRRKRAKLIGKYLMGDLLGEGSYGKVKEVLDSETLCRRAVKILKKKKLRRIPNGEANVKKEIQLLRRLRHKNVIQLVDVLYNEEKQKMYMVMEYCVCGMQEMLDSVPEKRFPVCQAHGYFCQLIDGLEYLHSQGIVHKDIKPGNLLLTTGGTLKISDLGVAEALHPFAADDTCRTSQGSPAFQPPEIANGLDTFSGFKVDIWSAGVTLYNITTGLYPFEGDNIYKLFENIGKGSYAIPGDCGPPLSDLLKGMLEYEPAKRASIRQIRQHSWFRKKHPPAEAPVPIPPSPDTKDRWRSMTVVPYLEDLHGADEDEDLFDIEDDIIYTQDFTVPGQVPEEEASHNGQRRGLPKAVCMNGTEAAQLSTKSRAEGRAPNPARKACSASSKIRRLSACKQQ [F298A] | 1.55 ± 0.15
